Assay results as given in patent US20260116920A1 (PEPTIDREAM, published 2026).
Starred links: 1 amine or outer side, 2 acyl side, 3 side chain; linkers in the order of their positions; H or OH if unused. Positions of bridges follow the written chain, without caps; N, C: chain ends. Non-standard residues stand in square brackets, D forms with d. Primed or numbered codes have the meaning given here. No end group written: not given here. MeF3COO(PEG4Me) = (S)-3-(3-((2,5,8,11-tetraoxatridecan-13-yl)carbamoyl)phenyl)-2-(methylamino)propanoic acid, COCCOCCOCCOCCNC(=O)c1cccc(C[C@@H](C(=O)[*:2])N(C)[*:1])c1; MeF4COO(PEG4Me)″ = N-methyl-4-carboxy-Phe with the carboxyl amidated by a methyl-capped PEG4 amine, COCCOCCOCCOCCNC(=O)c1ccc(C[C@@H](C(=O)[*:2])N(C)[*:1])cc1; F3COO(PEG4Me) = (S)-3-(3-((2,5,8,11-tetraoxatridecan-13-yl)carbamoyl)phenyl)-2-aminopropanoic acid, COCCOCCOCCOCCNC(=O)c1cccc(C[C@H](N[*:1])C(=O)[*:2])c1; F3COO(PEG4Me)″ = 3-carboxy-Phe with the carboxyl amidated by a methyl-capped PEG4 amine, COCCOCCOCCOCCNC(=O)c1cccc(C[C@H](N[*:1])C(=O)[*:2])c1; E(PEG4Me) = (S)-18-amino-15-oxo-2,5,8,11-tetraoxa-14-azanonadecane-19-oic acid, COCCOCCOCCOCCNC(=O)CC[C@H](N[*:1])C(=O)[*:2]; MeF4COO(PEG4Me) = N-methyl Phe with 4-carboxamide to PEG4Me amine, COCCOCCOCCOCCNC(=O)c1ccc(C[C@@H](C(=O)[*:2])N(C)[*:1])cc1; KCOpipzaa = N6-(4-(carboxymethyl)piperazine-1-carbonyl)-L-lysine, O=C(NCCCC[C@H](N[*:1])C(=O)[*:2])N1CCN(CC(=O)[*:3])CC1; Phe(4-OMe)(3) = (S)-2-amino-3-(4-methoxyphenyl)propanoic acid (source code F4OMe), COc1ccc(C[C@H](N[*:1])C(=O)[*:2])cc1; F4aao = (S)-2-amino-3-(4-(carboxymethoxy)phenyl)propanoic acid, O=C([C@H](Cc1ccc(OCC(=O)[*:3])cc1)N[*:1])[*:2]; Trp(1-CH2CO) = O=C([C@H](Cc1cn(CC(=O)[*:3])c2ccccc12)N[*:1])[*:2]; MeF3COO(PEG4Me)″ = N-methyl analogue of F3COO(PEG4Me); Trp(5-Cl) = N[C@@H](Cc1c[nH]c2ccc(Cl)cc12)C(=O)O; Nle(6-morpholino) = N[C@@H](CCCCN1CCOCC1)C(=O)O; Trp(7-aza) = N[C@@H](Cc1c[nH]c2ncccc12)C(=O)O; NMePhe(3-Cl) = CN[C@@H](Cc1cccc(Cl)c1)C(=O)O; NMePhe(4-F) = CN[C@@H](Cc1ccc(F)cc1)C(=O)O; 3Pal(6-NH2) = Nc1ccc(C[C@H](N)C(=O)O)cn1; NMeY = CN[C@@H](Cc1ccc(O)cc1)C(=O)O; Lys(Me2) = CN(C)CCCC[C@H](N)C(=O)O; NMeF = CN[C@@H](Cc1ccccc1)C(=O)O; 4Pal = N[C@@H](Cc1ccncc1)C(=O)O

Target: T1, human transferrin receptor (hTfR) (human, UniProt P02786 89-760)
T1 construct: used as 0.5 uM hTfR dimer solution, immobilised on an NTA sensor chip (Ni capture plus EDC/NHS coupling); also called human TfR; TfR1
Assay: SPR; B = KD 1-100 nM
Description: NTA sensor chip (Global Life Sciences Technologies Japan K.K.) was inserted into BiacoreT200 (Global Life Sciences Technologies Japan K.K.), then the priming operation was performed three times by using running buffer containing: 10 mM HEPES pH 8.0 (Nacalai Tesque, Inc.), 150 mM NaCl (Nacalai Tesque, Inc.), 0.05% Tween 20 (Nacalai Tesque, Inc.), 0.1% BSA (SIGMA-ALDRICH) and 1.0% DMSO (FUJIFILM Wako Pure Chemical Corporation), and equilibrated at a flow rate of 30 μL/min. 350 mM EDTA solution was reacted at a flow rate of 10 μL/min for 60 seconds, 0.5 mM […] solution (Kishida Chemical Co., Ltd.) was reacted at a flow rate of 10 μL/min for 60 seconds, and then the NTA sensor chip was washed with 3 mM EDTA solution (Nacalai Tesque, Inc.) at a flow rate of 10 μL/min for 60 seconds. After mixing 50 μL each of 60 mM EDC solution (Global Life Science Technologies Japan K.K.) and 650 mM NHS solution (Global Life Science Technologies Japan K.K.), the reaction was carried out at a flow rate of 10 μL/min for 420 seconds. 150 μL of 0.5 μM hTfR dimer solution was prepared by dilution with running buffer and reacted at a flow rate of 10 μL/min for 300 seconds to immobilize hTfR on the NTA sensor chip. For the human transferrin receptor (hTfR), recombinant hTfR described in Example 2 of WO2018/124121 was used. After immobilization, capping was performed by reacting with 1.0 M ethanolamine solution (Global Life Sciences Technologies Japan K.K.) at a flow rate of 10 μL/min for 420 seconds. Peptide lysate prepared in DMSO solution to 10 mM was diluted with running buffer to be a final concentration of 10 μM peptide lysate, then peptide solutions of 100 nM, 50 nM, 25 nM, 10 nM, and 5 nM were prepared. Using the above samples, the kinetics of the peptide against hTfR was obtained by SPR measurement.
The kinetic evaluation model was single-cycle kinetics, and curve fitting was performed using Biacore T200 Evaluation Software Version 3.0 (Global Life Science Technologies Japan K.K.). The binding of the peptide to hTfR was evaluated by performing curve fitting on the obtained sensorgram by least squares method and obtaining the KD value.

T1 sequence (P02786 89-760 limits assumed): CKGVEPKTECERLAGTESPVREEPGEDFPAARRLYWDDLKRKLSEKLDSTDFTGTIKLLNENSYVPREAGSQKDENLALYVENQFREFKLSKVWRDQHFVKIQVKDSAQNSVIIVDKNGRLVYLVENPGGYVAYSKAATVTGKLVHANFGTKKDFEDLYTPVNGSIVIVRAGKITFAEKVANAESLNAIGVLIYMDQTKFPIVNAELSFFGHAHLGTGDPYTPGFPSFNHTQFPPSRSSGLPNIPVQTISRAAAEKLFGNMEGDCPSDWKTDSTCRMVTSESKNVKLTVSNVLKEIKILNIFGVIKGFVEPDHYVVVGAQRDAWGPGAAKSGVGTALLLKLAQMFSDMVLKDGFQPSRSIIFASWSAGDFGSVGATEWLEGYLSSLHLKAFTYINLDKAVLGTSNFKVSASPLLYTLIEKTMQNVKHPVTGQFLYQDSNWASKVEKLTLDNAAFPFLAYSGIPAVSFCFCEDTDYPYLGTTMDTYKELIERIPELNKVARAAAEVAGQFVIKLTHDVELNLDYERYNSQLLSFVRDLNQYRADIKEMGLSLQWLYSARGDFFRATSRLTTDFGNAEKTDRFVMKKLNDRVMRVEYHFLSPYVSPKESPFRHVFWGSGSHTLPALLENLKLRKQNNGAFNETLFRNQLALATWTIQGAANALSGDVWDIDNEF

Binder	KD [nM]
{CH2CO}-AV[NMePhe(3-Cl)]VWNY[Phe(4-OMe)(3)]IIRRF[NMeY]C (thioether N-15; not fully specified (C-terminus)) [894_3149]	1 to 100
{CH2CO}-AV[NMePhe(3-Cl)]VWNY[F4aao]II[E(PEG4Me)]QF[NMeY]C-NH2 (thioether N-15; also: linker PEG4c, attachment site not given here) [849_0408]	1 to 100
{CH2CO}-AV[NMePhe(3-Cl)]VWNY[F4aao]II[E(PEG4Me)]RF[NMeY]C-NH2 (thioether N-15; also: linker PEG4c, place not given here) [849_0398]	1 to 100
{CH2CO}-AV[NMePhe(3-Cl)]VWNY[F4aao]II[E(PEG4Me)]R[E(PEG4Me)][NMeY]C-NH2 (thioether N-15; also: linker PEG4c, attachment site not given here) [849_0409]	1 to 100
{CH2CO}-AV[NMePhe(3-Cl)]VWNY[F4aao]II[E(PEG4Me)][KCOpipzaa]F[NMeY]C-NH2 (thioether N-15; also: linker PEG4c, place not given here) [849_0401]	1 to 100
{CH2CO}-AV[NMePhe(3-Cl)]VWNY[F4aao]IIQR[F3COO(PEG4Me)″][MeF4COO(PEG4Me)″]C-NH2 (thioether N-15; also: linker PEG4c, attachment site not given here) [849_0412]	1 to 100
{CH2CO}-AV[NMePhe(3-Cl)]VWNY[F4aao]II[E(PEG4Me)][Lys(Me2)]F[NMeY]C-NH2 (thioether N-15; also: linker PEG4c, attachment site not given here) [849_0407]	1 to 100
{CH2CO}-AV[NMePhe(3-Cl)]V[Trp(1-CH2CO)]NY[F4aao]II[E(PEG4Me)][KCOpipzaa]F[NMeY]C-NH2 (thioether N-15; also: linker PEG4c, place not given here) [849_0400]	1 to 100
{CH2CO}-AV[NMePhe(3-Cl)]VWNY[F4aao]II[E(PEG4Me)]R[E(PEG4Me)][NMeY]C-NH2 (thioether N-15; also: linker G-ds-ds-ds-ds-ds, attachment site not given here) [849_0410]	1 to 100
{CH2CO}-AV[NMePhe(3-Cl)]VWNY[F4aao]II[E(PEG4Me)]R[F3COO(PEG4Me)″][NMeY]C-NH2 (thioether N-15; also: linker PEG4c, attachment site not given here) [849_0411]	1 to 100
{CH2CO}-AV[NMePhe(3-Cl)]VWN[3Pal(6-NH2)][F4aao]II[E(PEG4Me)][KCOpipzaa][4Pal][NMeY]C-NH2 (thioether N-15; also: linker PEG4c, attachment site not given here) [849_0403]	1 to 100
{CH2CO}-AV[NMePhe(3-Cl)]V[Trp(1-CH2CO)]N[3Pal(6-NH2)][F4aao]II[E(PEG4Me)]R[4Pal][NMeY]C-NH2 (thioether N-15; also: linker PEG4c, place not given here) [849_0402]	1 to 100
{CH2CO}-AV[NMePhe(3-Cl)]VWNY[F4aao]II[E(PEG4Me)][Nle(6-morpholino)]F[NMeY]C-NH2 (thioether N-15; also: linker PEG4c, attachment site not given here) [849_0405]	1 to 100
{CH2CO}-AV[NMePhe(3-Cl)]VWNY[F4aao]II[E(PEG4Me)]KF[NMeY]C-NH2 (thioether N-15; also: linker PEG4c, attachment site not given here) [849_0406]	1 to 100

The next lines start with the values.

KD [nM]	Binder
1 to 100	{CH2CO}-AV[NMePhe(3-Cl)]V[Trp(7-aza)]NY[F4aao]IIERFYC-NH2 (thioether N-15; not fully specified (residues 11, 14); also: linker PEG4c, place not given here) [849_0418]
1 to 100	{CH2CO}-AV[NMePhe(3-Cl)]VWNY[F4aao]IIQR[F3COO(PEG4Me)][MeF3COO(PEG4Me)″]C-NH2 (thioether N-15; also: linker G-ds-ds-ds-ds-ds, attachment site not given here) [849_0414]
1 to 100	{CH2CO}-AV[NMePhe(3-Cl)]V[Trp(7-aza)]NY[F4aao]IIQR[F3COO(PEG4Me)][MeF3COO(PEG4Me)″]C-NH2 (thioether N-15; also: linker PEG4c, place not given here) [849_0417]
1 to 100	{CH2CO}-AV[NMePhe(4-F)]V[Trp(5-Cl)]NYYIIR[dR]FYC-NH2 (thioether N-15; not fully specified (residue 14); also: linker PEG4c, place not given here) [894_0256]
1 to 100	{CH2CO}-AV[NMePhe(3-Cl)]V[Trp(7-aza)]NY[F4aao]II[E(PEG4Me)]R[F3COO(PEG4Me)][NMeY]C-NH2 (thioether N-15; also: linker PEG4c, attachment site not given here) [849_0415]
1 to 100	{CH2CO}-AV[NMePhe(3-Cl)]V[Trp(7-aza)]NY[F4aao]IIQR[F3COO(PEG4Me)][MeF4COO(PEG4Me)]C-NH2 (thioether N-15; also: linker PEG4c, attachment site not given here, also called 894_0416) [849_0416]
1 to 100	{CH2CO}-AV[NMeF]V[Trp(5-Cl)]NYYIIR[dR]FYC-NH2 (thioether N-15; not fully specified (residue 14); also: linker PEG4c, place not given here) [894_0252]
1 to 100	{CH2CO}-AV[NMePhe(3-Cl)]VWNY[F4aao]IIQR[F3COO(PEG4Me)″][MeF3COO(PEG4Me)]C-NH2 (thioether N-15; also: linker PEG4c, attachment site not given here) [849_0413]
